Measurements taken from a protein production outcome set (Wang et al. 2014).

Assay: label from the status in PepcDB records
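Note: failed if final PepcDB status was selected cloned or expressed and not failed if soluble or beyond.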

With “MISHFGAPLIRYDPALQGHAVPQLDMKTFTRRQHRPRPLILAVGLGLGIALTAPLAAAQNAPSSQPWRDTALTADQRADRLLAQMTEDEKFQMLRSYLGLGTDKIPKPAGALGSAGYVPGIARLGIPAQQLADAGVGVTNPGGIRKGDYATAMPSVLSTASSWNRQLAYAGGKTMGRESWQQGFNVLLAGSVNLQRDPRNGRNFEYAGEDPLLAGTMVGESIRGVQSEHVLSTMKHFALNDMETRRNFHSAQIGEQAMHESDLLAFEIALKIGDPASVMCSYNKINGVYGCEHDYLLNQVLKQEWKYPGYVMSDWGGVHSGSKAALAGLDQESAGEVFDVAVFFDAPLRMAVSAGVVPRARFDDMVKRILRSLFAHGAFDYPTQRQPIDGKAGLLAAQHVAEAGSVLLRNEQAMLPVSQDVRRIAVIGGYADKGVMSGGGSSRVDVTINGGNAVPGITPTTWPGPVIIHPSSPLQALRAALPNAQIDYVDGKDRAAAARAAKAADVAIVFATQWATESVDLPDMRLPDNQDALIEAVAKANPKTTVVLETNGPVRMPWAERVPAVLQAWYPGIGGGEAIANLLTGTVNPSGHLPVTWPVDESQLPRPSIPGLGFKPAKPGEDTIDYAIEGANVGYKWFAAHKLTPRYPFGHGLSYTQFRMDGLRVEANGSQLTASFEVENIGQREGAAVPQLYVTLPDGHATPLRLIGWQKLTLKPGEKRSVQVVAEPKTLADFDAQARRWTIAAGTYRVQLARSASEPVQSAAVTLQAAQLP” the protein production was “failed”.
In the case of “MISILRRGLLVLLAALPLLANAASTPSAHDLVQDTTTRLLADLAANKEKYKQSPNDFYNALNSIVGPVVDADGISRSIMTVKYSRKATPEQMVRFQENFKRSLMQFYGNALLEYNNQGITVSPAKDESGTRTSVDMQVKGNNGAIYPVSYTLEKINDEWKVRNVIINGINIGKLFRDQFADAMQRNGNNLDKTIDGWAGEVAKAKEVTEDAAQKAAQLEHHHHHH”, the protein production is reported as “not failed”.
With “MISMPKEKVVIIIPTYNEEDNISNTIDLILKETYSLADYQVDILVFDSHSTDSTAHIVRELTYTSQRIHFAQEPQKTGLGSAYLQAMRIAIDELNADVVFEFDADGSHQPCYIAPMLELLKQHDVVVGSRYISGGRIPSNWAFHRKLLSVGGNWVARMLLTGKYKDLTSGLRAIRTNLLKKLLPSNFLSNNYAYKLELYWLLHKAKARIVEFPIQFIDREKGKSKLPKNSMIDTLRVLFTLRFRELRQYLTMCCVGSIGALIQFSLYNWLRSSNHSALVSSQVAISAAIISNFIFHHSITFKQKTDFRITKTTFSRFTQFIIYSTFMVYFQSLWVHIFVHSFGQGVLKENIIVASGLGIGSIINYLFYSNIIWSSKGTHSLNSNSSKETQI” the protein production was “failed”.
In the case of “MISNEHINTQNFWYQLVEKMAIGVLVINNEGQILYANDYAVQLFGAIRTELIGTNFLYPMAADETQEVEILKSSNEILTAHMTVRKSIWENRQVWIISLFDIT”, the protein production is reported as “failed”.
In the case of “MISSYGDVDMELRDEDLILEEVRDYLTAYLRNIHQEDIILDNERVVVDLNQLYNYGLMEFVEFLINNPQKGIDFIKECYNDAYYTLRNEYPTNVIIAVKNLPKIFKTTRKGKIFTIEDIRSKTLGKLVEFEGIIVMASKIRPMLKKAYYICPKCGREVVREIDILNTDSEKAVCECGAELNLIEHKSIYTDFQEIKVQQPLDLMENPEEPPKYITVFLENSPGIYAGRVKITGIPIKVKKSKKLPIYDIHVKALHCEVLDGEVKIKLTNSDIENIKKIAKRKDVVNILADRLIPEIKGHSAIKKAVLLQQIKGVKKPGKRADIHILLITDPGIGKTVILRKIAEIPGNLYGSVTTATGVGLTAAVVREKTEIGEDTWVIKPGLLVKAHKGTACIDELTVNKELQSYVLEAMESQTIHISKGGINAKLPAECAILAACNPRWGRFNPEVSVAEQINIPAPLLSRFDLIFPIRDVSDKDKDKDIAEYIVDLHRAYLDEKINREMGLDYLEVDGVKIDKEFIIKYIYYARQKKPIISEKAKELFVNYYVEMRKKHQITARQLEAAIRIAEAHAKAKLKDVVDEEDAKEAINIITECLKEIAYDPETGIFDVDKILGVSKKERDKLTTVYEIIKELSEKSELVEHEDIAEEAKKKGIKEDELENIIKKLIKYGDIDEPKPGRYRLL”, the protein production is reported as “failed”.
For “MISTMYSEETSERSSFPSKRHLEDRTENREEHSKRLRPTSFRDQKVTIPQGWLDCPRFGQHIGLIIPSKVPLSESYNDCVPSGKRYNFKQWLTKIGLVIDLTNTTRYYHPNTELRQNRIEYVKIRCSGRDSVPDNVSVNTFVHEVTQFENHNLSEKYLLVHCTHGHNRTGFMIVHYLMRSRPMMSVTQALKIFSDARPPGIYKPDYIDALYRFYHEVKPGSVICPPTPEWKRSEEAKFDDDDNALSYREVQGNNQEENVQLSNDDVLGDEIPYDQEVSYQNSINHMLNISMQFPGSHPLSLGREALQLLRQRYYYATWKADGTRYMMLLTRDGCYLVNREYRFRRVQMRFPCEYEPSDYKVHHYTLLDGEMVVDTIKEGETQRHVRRYLVYDLVAINGQFVAERPFSERWNILERELIKPRNDEKKVRDHWYRYDKEPFGVRIKAFCLLSAVEKKVFNELIPLLSHESDGLIFQGWDNPYVFGPNKDLLKWKFVETLDFLFDMDKYGRQMLFLQERGRMKLMEGFAVEFRGDGWDNDLASYCGKIVECSWDKEKKVWVSLRIRVDKSKPNGIGTGRSVIKCIEDDLTKEVLLKEIKEIILLPMYVERIENDTKEAARRKHGNRKG”, the protein production was “failed”.
For “MITETQLTAIQTYALQKLAHDHSGHGRDHLQRVNRLARRLAKDEGANLNLTLAAAWLHDVIDDKLMANPAKAHQDLIVQLNAQNVTADDQTAIFAIIDHMSFSKSFNGPQKLSLEGQVVQDADRLDAIGAIGIARALYYSGHVGEKIYDPAIAPREHMTREQYRHQPGTAINHFYEKLFKLAALMNTDTAKALAAHRTAVMHEFVDQFKAEWTADDKALEHHHHHH”, the protein production was “not failed”.
With “MITFEKVTVENENVVKEMFRSHSLSEKQVQYCVKVDDTYIGVIDYRVQGETAILSQLIIHFDYQSYGYGTNTYFTFEMMMKERNVKEIKVLQTELTEPVKSFIESFGFNVEDG” the protein production was “failed”.
In the case of “MITFRKRVEIEADPAEVFRVISDPWRITEFWKGTRQVIEDGDFYRIRFAFPAWGLMSFHPDAERMTVLTSYLKGPVRGSKVDAVLVSSGKTVLQTEWNVRLSFYLRPFERRIASHFESGADHAINRIKESVEKDKK”, the protein production is reported as “failed”.
In the case of “MITHISPAGSMDLLSQLEVERLKKTASSDLYQLYRNCTLAVLNSGSHTDNSKELLDKHQSFDVNVVRRERGIKLELTDPPEHAFVDGEIIKGIQEHLFSVLRDIVYVNMHLADSQRLNLTNPTHITNLVFGILRNAGALTPGIEPNLVVCWGGHSINGVEYQYTREVGNELGLRELNICTGCGPGAMEGPMKGAAIGHAKQRYTEQRYLGLTEPSIIAA”, the protein production is reported as “failed”.
In the case of “MITIITLLLVVLISAIIVRIGAVALEMTGLSRDVAAFQAQSAFSGVGFTTSESEYVVSHPVRRRIIRILMLLGSAGVTSAIATLVLSFVGTTKEEAGYRMVVLLIGLLALYLFFRSKFIERVMRKAIKKGLSRLAPSLRVIDYSQLLGITRGYSIVQIKVKRRSWLADKTLRDLQLDKEGVLVLGIYRKVNGRRVYLGAPHGSTKVLPGDELILYGPEDVLMSLSKRLKGAKGEKEHVEAMEMAKARRVQEEREAGISV”, the protein production is reported as “failed”.
For “MITLKQALSLSQDELETLKNEIDAKVRASDLNAYIKAPSLNGASAKGVPILIKDNISVKGWEITCSSKILEGYVAPYHASVMENLHQNSMAGFGLSNMDEFAMGSTTESSCYGITKNPRDKNRVPGGSSGGSAAAVAGGLAVAALGSDTGGSIRQPASYCGCVGLKPTYGRVSRYGLIAYCSSFDQIGPITQNVEDASILFDAISGYDSKDSTSANLKPTQTFKNLNRDKRFKIAVLMDHIKDASNEVQLAYENTLKALKEMGHEIVEKKMLDSHYQISIYYIISMAEASSNLARFDGVRYGRRAQNIKDLKELYLKSRSEGFGDEVKRRIMLGNFVLSSGYYDAYYLKAQQMRLIIKEQYNKIFEEVDLIFTPVAPTSAHLFNYHASPLEMYLSDIYTIGANLSGLPALSLPVAKDPLGLPIGMQFIAKAFDEQSLLDVSYALEQELDLKLD”, the protein production was “failed”.
For “MITRTIRGILKGAAVFLGLAGAIALLHAFGLDSTLDTAWIDSHIRDHGLQGHLLYIGIAGVLTALAVPRQFVSFLGGYAFGAAFGTLWATVGATLGCMLTFFYARFAGQSLVNRRFSHRVARVNAFLSRNPFTMTFIIRCLPVGNNVLTNLIAGVSSIPAVQFFAGSFIGYIPQHFIFALLGSGVHVSPVLRTVTSALLFVLSSVFGYMLYRRYRIDRDLEEPDDQ”, the protein production was “failed”.
With “MITTRTARQCGQADYGWLQARYTFSFGHYFDPKLLGYASLRVLNQEVLAPGAAFQPRTYPKVDILNVILDGEAEYRDSEGNHVQASAGEALLLSTQPGVSYSEHNLSKDKPLTRMQLWLDACPQRENPLIQKLALNMGKQQLIASPEGAMGSLQLRQQVWLHHIVLDKGESANFQLHGPRAYLQSIHGKFHALTHHEEKAALTCGDGAFIRDEANITLVADSPLRALLIDLPV” the protein production was “not failed”.
In the case of “MITVVIASRLREDRLDYLTAMHASLTRQSVPWEAVIALDGASPDRLPRQLAQDPRVDTLVLPRPVGAACARNLALTQVRTRYVNWADDDDEFTDDAMSVRLETLESTGVGWCAGWSEDQFRDGSTRLWRCPTPPGRHEAGDVWTFWKSPADTIPIGPTTILARTDLVRAAPMGGLVQGEDYCAALGVTALAPGILLPLPVYRYRKWGGQMTAQDGYDQLETAAREHAWAYGRSLRAVLRGGEDLVHVLEHHHHHH”, the protein production is reported as “failed”.
In the case of “MIVAFENNVVCSDEKVRDYLLAHHADLKEDQDEDALCLVRLHKEEDIDGTDRVDLAGWREISRELYWTGEQMECNYSIIRFSRKTTSLQMSVVLSTCNQLEWLEKVLWGYEAQDTKNFELIIADDGSRKETYDMLQRITPQLSFQVKHVWHEDKGFRKCDILNKGILAAQADYLLFSDGDCIPRKDFVSTHLCLRRKGRFLSGGYHKLSMDLSKDITKDDILSGRCFDLQWMRGKGMPASFKNNKLTATGFKRWALNTFTPTKASWNGHNASGWLSDILAVNGFDERMQYGGQDREFGERLENYGIHGMQIRYSTVCLHLDHARGYKTKDSIQKNRNIRKHTRGAKVQWASLGIVKDELRGQSVKVNSYYDRYTREEEKLTSYKEKGGFYRHIYSLPCRWRRAKYHDKVVRAYQQDTDAPALSNHSGVIVSLTTFPPRISQLHLMLKSILWQTCPPEKIIVWLSEQEFPGRLNDLPEELKRLMAKGIAFRFVSENFRSHKKYHYVFREYPDSKVITVDDDLIYPRNTVERLLSLSYQYPDTVCGNVIRKIHMDGNSFSVYRKWTKVFTMPVNSSLQNVAIGCGGIYYPPHWYGEELFDWKIISEHCPSADDLWLKANELKRRVKVTGGGEFYPRPIELPQTQNNSLQKKNNGKTNLNDKQWKSLNELWKLDELYCINGK”, the protein production is reported as “failed”.
For “MIVIPMAGMSSRFFKAGYTQPKYMLEAHGQTLFEHSVNSFAAYFASTPFLFIVRNVYDTAVFVREKATQLGIKQFYIAELHTETRGQAETVTLGLEELAKQGVDYQGSITVFNIDTFRPNFVFPDISQHSDGYLEVFQGGGDNWSFAKPEHAGSTKVIQTAEKNPISDLCSTGLYHFNRKEDYLEAYREYVARPSQEWERGELYIAPLYNLLIQKGLNIHYHLIARHEVIFCGVPDEYTDFLRQPQPLEHHHHHH”, the protein production was “not failed”.
In the case of “MIVRRTIDKDELKELPKTVFPGRIYVIQSEAETEKAVAYLQSRPVIGIDSETRPSFTKGQSHKVALLQISSEECCFLFRLNMTGLTQPLVDLLENPAVIKVGLSLKDDFMMLHKRAPFTQQSCIELQDYVRQFGIQDKSLQKIYAILFKEKISKSQRLSNWEADVLSDGQKQYAATDAWACLNIYNLLQELKQTGDWEVSPLTATVSPAEEVISNKISD”, the protein production is reported as “failed”.
In the case of “MIWNIDYFCNLRCKSCNAWQGKIFFPEDQIDKHLQEMKNNGIKIVSVTGGEPTLNKNVVDIIRKLKENHFFTHIATNGTNPYVLRKLYPYLDAVTISLDSNIPEEHNAYRGLKIFDTVVSNIKEAKSKVKIVTANMLVTNF”, the protein production is reported as “failed”.
